Source: IntAct's records for PubMed 23435380

B1: Homeobox protein SIX1 (Homo sapiens), Q15475 (parent)
chain: MSMLPSFGFTQEQVACVCEVLQQGGNLERLGRFLWSLPACDHLHKNESVLKAKAVVAFHRGNFRELYKILESHQFSPHNHPKLQQLWLKAHYVEAEKLRGRPLGAVGKYRVRRKFPLPRTIWDGEETSYCFKEKSRGVLREWYAHNPYPSPREKRELAEATGLTTTQVSNWFKNRRQRDRAAEAKERENTENNNSSSNKQNQLSPLEGGKPLMSSSEEEFSPPQSPDQNSVLLLQGNMGHARSSNYSLPGLTASQPSHGLQTHQHQLQDSLLGPLTSSLVDLGS
partner: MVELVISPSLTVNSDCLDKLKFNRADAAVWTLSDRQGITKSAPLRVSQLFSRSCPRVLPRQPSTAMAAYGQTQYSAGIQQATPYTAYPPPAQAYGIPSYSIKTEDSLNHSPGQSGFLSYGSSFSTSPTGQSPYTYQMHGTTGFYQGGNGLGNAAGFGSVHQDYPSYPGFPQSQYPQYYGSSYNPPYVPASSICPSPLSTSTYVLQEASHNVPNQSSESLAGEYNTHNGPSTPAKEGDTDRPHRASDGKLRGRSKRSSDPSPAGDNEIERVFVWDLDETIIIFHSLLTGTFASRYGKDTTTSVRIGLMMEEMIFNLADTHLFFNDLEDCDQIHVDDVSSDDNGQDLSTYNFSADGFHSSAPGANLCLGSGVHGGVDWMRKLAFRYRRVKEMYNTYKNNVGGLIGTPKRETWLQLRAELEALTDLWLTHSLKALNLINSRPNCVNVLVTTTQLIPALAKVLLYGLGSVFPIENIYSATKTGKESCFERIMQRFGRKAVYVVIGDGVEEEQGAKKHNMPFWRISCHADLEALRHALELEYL
B2: Protein phosphatase EYA2 (Homo sapiens), O00167-1 (parent)
chain: B1 partner
partner: B1 chain

Variants of: B1
Conditions: with EYA2, O00167-1

| Variant | effect of a mutation on the interaction |
| --- | --- |
| C16R | disrupting interaction strength |

Variants of: B2
Conditions: with six1_human SIX1, Q15475

| Variant | effect of a mutation on the interaction |
| --- | --- |
| A532R | disrupting interaction strength |
| P516R | decreasing interaction strength |
